Key:
Test in all cases: cell-based or functional assay
[1] = molecular target: HIV-1 Env of isolate MGRM-C-022 (pseudovirus) (HIV-1 isolate MGRM-C-022, subtype C)
[2] = molecular target: HIV-1 Env of isolate MG RM-AG-005 (HIV-1)
[3] = molecular target: HIV-1 MGRM-Chronic-B-010 Env (pseudovirus) (HIV-1)
[4] = molecular target: HIV-1 Env of isolate MG RM-AG-001 (HIV-1)
[5] = molecular target: HIV-1 JRCSF envelope glycoprotein (Env) on pseudovirus (HIV-1) (UniProt P20871)
[6] = molecular target: HIV-1 Env of isolate MG RM-D-001 (subtype D) (HIV-1)
[7] = molecular target: HIV-1 Env of isolate MGRM-F1-022 (HIV-1)
[8] = molecular target: HIV-1 Env of isolate 92UG005 (subtype D) (HIV-1)
[9] = molecular target: HIV-1 Env of isolate MG RM-D-024 (subtype D) (HIV-1)
[10] = molecular target: HIV-1 JR-CSF Env R476A (HIV-1 (isolate JR-CSF)) (UniProt P20871)
[11] = molecular target: HIV-1 Env of isolate MG RM-AG-003 (HIV-1)
[12] = molecular target: HIV-1 MGRM-Chronic-B-003 Env (pseudovirus) (HIV-1)
[13] = molecular target: HIV-1 Env of isolate MG RM-AG-002 (HIV-1)
[14] = molecular target: HIV-1 VLGCB3 Env (pseudovirus) (HIV-1)
[15] = molecular target: HIV-1 JR-FL Env (pseudovirus) (HIV-1)
[16] = molecular target: HIV-1 MGRM-Chronic-B-020 Env (pseudovirus) (HIV-1)
[17] = molecular target: HIV-1 Env of isolate MGRM-Chronic-B-001 (HIV-1)
[18] = molecular target: HIV-1 Env of isolate CMU02 (CRF01_AE), on pseudovirus (HIV-1)
[19] = molecular target: HIV-1 Env of isolate MGRM-C-028 (HIV-1)
[20] = molecular target: HIV-1 Env of isolate 93IN905 (HIV-1)
[21] = molecular target: HIV-1 envelope glycoprotein (Env) of isolate MGRM-C-017, on pseudovirus (HIV-1)
[22] = molecular target: HIV-1 Env of isolate MGRM-F1-012 (HIV-1)
[23] = molecular target: HIV-1 Env of isolate MGRM-G-027 (subtype G) (HIV-1)
[24] = molecular target: HIV-1 Env of isolate MGRM-F1-010 (HIV-1)
[25] = molecular target: HIV-1 envelope glycoprotein (Env) of isolate MGRM-C-023, on pseudovirus (HIV-1)
[26] = molecular target: HIV-1 Env of isolate MGRM-D-028 (clade D) (HIV-1)
[27] = molecular target: HIV-1 92UG005 envelope protein (Env) on pseudovirus (HIV-1)
[28] = molecular target: HIV-1 97ZA012 envelope glycoprotein (Env) on pseudovirus (HIV-1)
[29] = molecular target: HIV-1 Env of isolate MGRM-AE-003 (HIV-1)
[30] = molecular target: HIV-1 Env of pseudovirus VLGCB3, clade B (HIV-1)
[31] = molecular target: HIV-1 MGRM-A-006 envelope glycoprotein (Env) (HIV-1)
[32] = molecular target: HIV-1 MGRM-F1-012 Env (pseudovirus) (HIV-1)
[33] = molecular target: HIV-1 Env of isolate MGRM-D-029 (clade D) (HIV-1)

Sequence of 5329_C19 (PGT-136) (antibody) (VH): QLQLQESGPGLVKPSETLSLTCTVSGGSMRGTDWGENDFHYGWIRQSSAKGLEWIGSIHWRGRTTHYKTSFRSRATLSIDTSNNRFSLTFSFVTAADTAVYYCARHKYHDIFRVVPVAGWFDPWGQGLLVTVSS
Sequence of 5329_C19 (PGT-136) (antibody) (VL): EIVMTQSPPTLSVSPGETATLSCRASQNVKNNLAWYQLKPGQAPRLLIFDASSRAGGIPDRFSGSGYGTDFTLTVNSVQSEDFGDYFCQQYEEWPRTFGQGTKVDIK
Sequence of 5345_I01 (PGT-137) (antibody) (VH): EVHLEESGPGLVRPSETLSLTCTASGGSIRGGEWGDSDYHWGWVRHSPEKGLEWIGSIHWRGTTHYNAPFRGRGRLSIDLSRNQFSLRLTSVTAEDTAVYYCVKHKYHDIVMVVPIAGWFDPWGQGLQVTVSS
Sequence of 5345_I01 (PGT-137) (antibody) (VL): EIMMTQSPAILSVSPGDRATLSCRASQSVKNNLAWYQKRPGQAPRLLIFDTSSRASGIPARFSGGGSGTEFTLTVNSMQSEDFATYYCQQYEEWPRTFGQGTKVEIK

5123_A06 (PGT-125) (antibody)
IC50 (µg/mL) neutralization [1]: 1.23 µg/mL | neutralization IC50 [2]: > 50 µg/mL | IC50, pseudovirus neutralization [3]: 0.006 µg/mL | neutralization IC50 [4]: > 50 µg/mL | IC50 (ug/ml), neutralizing activity [5]: 0.006 µg/mL | neutralization IC50 [5]: 0.006 µg/mL | neutralization IC80 [5]: 0.0196 µg/mL | neutralization IC90 [5]: 0.0392 µg/mL | neutralization IC95 [5]: 0.0741 µg/mL | IC50 (µg/mL), pseudovirus neutralization [6]: 2.84 µg/mL | IC50 [7]: > 50 µg/mL | IC50 (µg/mL), pseudovirus neutralization [8]: > 50 µg/mL | IC50 (µg/mL), pseudovirus neutralization [9]: > 50 µg/mL | Fold IC50 increase relative to wild-type [10]: 1.9 fold | neutralization IC50 [11]: > 50 µg/mL | IC50, pseudovirus neutralization [12]: 0.157 µg/mL | neutralization IC50 [13]: > 50 µg/mL | IC50, pseudovirus neutralization [14]: 0.015 µg/mL | IC50, pseudovirus neutralization [15]: 0.009 µg/mL | IC50, pseudovirus neutralization [16]: 0.087 µg/mL

5136_H01 (PGT-131) (antibody)
IC50 [17]: > 50 µg/mL | IC50, single-round pseudovirus neutralization [18]: > 50 µg/mL | Fold IC50 increase relative to wild-type [10]: 1 fold | IC50 [19]: > 50 µg/mL | IC50 [20]: 0.177 µg/mL

5141_B17 (PGT-126) (antibody)
IC50 (µg/mL) neutralization [1]: 0.96 µg/mL | neutralization IC50 [2]: 1.21 µg/mL | IC50, pseudovirus neutralization [3]: 0.005 µg/mL | neutralization IC50 [4]: > 50 µg/mL | IC50 (ug/ml), neutralizing activity [5]: 0.0061 µg/mL | IC50 (µg/mL), pseudovirus neutralization [6]: 0.084 µg/mL | IC50 [7]: > 50 µg/mL | IC50 (µg/mL), pseudovirus neutralization [8]: 0.037 µg/mL | IC50 (µg/mL), pseudovirus neutralization [9]: 0.376 µg/mL | Fold IC50 increase relative to wild-type [10]: 1.5 fold | neutralization IC50 [11]: > 50 µg/mL | IC50, pseudovirus neutralization [12]: 0.041 µg/mL | neutralization IC50 [13]: > 50 µg/mL | IC50, pseudovirus neutralization [14]: 0.007 µg/mL | IC50, pseudovirus neutralization [15]: 0.014 µg/mL | IC50, pseudovirus neutralization [16]: 0.021 µg/mL

5145_B14 (PGT-127) (antibody)
IC50 (µg/mL) neutralization [1]: 0.41 µg/mL | neutralization IC50 [2]: > 50 µg/mL | IC50, pseudovirus neutralization [3]: 0.019 µg/mL | neutralization IC50 [4]: > 50 µg/mL | IC50 (µg/mL), pseudovirus neutralization [6]: 2.23 µg/mL | IC50 [7]: > 50 µg/mL | IC50 (µg/mL), pseudovirus neutralization [8]: 1.11 µg/mL | IC50 (µg/mL), pseudovirus neutralization [9]: 1.95 µg/mL | Fold IC50 increase relative to wild-type [10]: 1.2 fold | neutralization IC50 [11]: > 50 µg/mL | IC50, pseudovirus neutralization [12]: 0.12 µg/mL | neutralization IC50 [13]: > 50 µg/mL | IC50, pseudovirus neutralization [14]: 0.022 µg/mL | IC50, pseudovirus neutralization [15]: 0.029 µg/mL | IC50, pseudovirus neutralization [16]: 0.05 µg/mL

5147_N06 (PGT-130) (antibody)
IC50 (ug/ml), neutralizing activity [5]: 0.0089 µg/mL | IC50 [17]: > 50 µg/mL | IC50, single-round pseudovirus neutralization [18]: > 50 µg/mL | Fold IC50 increase relative to wild-type [10]: 1.3 fold | IC50 [19]: > 50 µg/mL | IC50 [20]: 0.02 µg/mL

5329_C19 (PGT-136) (antibody)
IC50 [17]: > 50 µg/mL | IC50, single-round pseudovirus neutralization [18]: > 50 µg/mL | IC50 [19]: 33.7 µg/mL | IC50 [20]: 0.011 µg/mL

5343_B08 (PGT-135) (antibody)
IC50 [17]: > 50 µg/mL | IC50, single-round pseudovirus neutralization [18]: > 50 µg/mL | Fold IC50 increase relative to wild-type [10]: 0.8 fold | IC50 [19]: 1.47 µg/mL | IC50 [20]: 0.011 µg/mL

5345_I01 (PGT-137) (antibody)
IC50 [17]: > 50 µg/mL | IC50, single-round pseudovirus neutralization [18]: > 50 µg/mL | IC50 [19]: > 50 µg/mL | IC50 [20]: 0.042 µg/mL

VRC01 (antibody)
IC50, pseudovirus neutralization [21]: 0.366 µg/mL | IC50, pseudovirus neutralization [22]: 0.488 µg/mL | IC50 [17]: 0.066 µg/mL | neutralization IC50 [23]: 0.36 µg/mL | IC50, pseudovirus neutralization [7]: 0.055 µg/mL | IC50, pseudovirus neutralization [24]: 0.097 µg/mL | IC50, pseudovirus neutralization [25]: 0.077 µg/mL | neutralization IC50 [20]: 0.138 µg/mL

b12 (antibody)
IC50 (µg/ml), pseudovirus neutralization [26]: 0.78 µg/mL | neutralization IC50 [27]: > 50 µg/mL | IC50 (µg/ml), pseudovirus neutralization [28]: > 50 µg/mL | IC50 (µg/ml), pseudovirus neutralization [29]: > 50 µg/mL | IC50 (µg/ml), pseudovirus neutralization [30]: 0.15 µg/mL | IC50 (µg/ml), pseudovirus neutralization [31]: 13.6 µg/mL | IC50 (µg/ml), pseudovirus neutralization [32]: > 50 µg/mL | IC50 (µg/ml), pseudovirus neutralization [33]: > 50 µg/mL

— patent US20200024330A1
